Data from patent US20170037124A1 (Regeneron, published 2017).

Experiments:
[1] = molecular target: T1, anti-mFc (AMC) Octet biosensor, blank; assay: BLI Octet, blank AMC sensor, 100 nM mAb, 25C
T1 construct: Sensor without captured protein, used as blank; also called Blank AMC Sensor
Description: (§1) Binding of ANGPTL8 antibodies to human and monkey ANGPTL8 proteins was investigated using Bio-layer Interferometry with an Octet HTX biosensor platform (ForteBio, A Division of Pall Life Sciences). All experiments were performed at 25° C. in 10 mM HEPES pH 7.4, 150 mM NaCl, 0.05% v/v Surfactant Tween-20, and 1 mg/ml BSA with the reaction multiwell plate agitated at 1000 rpm. Approximately 1.6 nm of human ANGPTL8 produced with a C-terminal mouse IgG2a Fc tag (hANGPTL8-mFc; SEQ ID NO: 340) or cynomolgus monkey ANGPTL8 produced with a C-terminal mouse IgG2a Fc tag (MfANGPTL8-mFc; SEQ ID NO: 341) was captured onto anti-mFc (AMC) Octet biosensors by submerging the sensors into wells containing 10 μg/mL of each protein for 4 minutes. Under the same conditions a negative control protein with the same mFc tag (hLDLR-mFc) was also coupled to the AMC sensor. All four sensors, […] and one blank, were then submerged into wells containing 100 nM of different ANGPTL8 monoclonal antibodies or an isotype control for 4 minutes.

[2] = molecular target: T2, human ANGPTL8 expressed with C-terminal mouse IgG2a Fc tag (hANGPTL8-mFc; SEQ ID NO: 340) (human); assay: BLI Octet, captured antigen, 100 nM mAb, 25C; background 0.03 nm
T2 construct: also called Angiopoietin-like protein 8
T2 chain: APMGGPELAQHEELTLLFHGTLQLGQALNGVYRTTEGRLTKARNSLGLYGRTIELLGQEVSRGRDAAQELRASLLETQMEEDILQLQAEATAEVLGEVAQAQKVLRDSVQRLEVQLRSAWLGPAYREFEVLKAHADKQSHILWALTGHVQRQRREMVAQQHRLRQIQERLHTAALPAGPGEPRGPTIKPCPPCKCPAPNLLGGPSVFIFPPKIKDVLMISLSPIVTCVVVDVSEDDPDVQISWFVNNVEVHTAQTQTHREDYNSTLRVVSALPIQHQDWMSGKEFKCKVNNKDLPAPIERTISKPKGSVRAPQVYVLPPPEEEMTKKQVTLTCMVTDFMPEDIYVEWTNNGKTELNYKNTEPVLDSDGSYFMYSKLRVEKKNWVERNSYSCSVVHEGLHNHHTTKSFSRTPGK
Description: as §1

[3] = molecular target: T3, peptide from the N-terminal coiled-coil region of human ANGPTL3 (hANGPTL3 peptide, SEQ ID NO: 338) (human); assay: SPR, captured mAb, 500 nM peptide, 25C
T3 construct: also called hANGPTL3 shift peptide
T3 peptide: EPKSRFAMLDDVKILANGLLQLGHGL
Description: (§2) The assay utilized a format where ANGPTL8 antibodies were captured on the sensor surface and peptides were injected over the antibody surface. Peptides from the N-terminal coiled-coil region of human ANGPTL3 (hANGPTL3 peptide, SEQ ID NO: 338) and human ANGPTL4 (hANGPTL4 peptide, SEQ ID NO: 339) were also included as controls. Also included was a control antibody (H4H268P from US2011/0159015A1) that binds to the ANGPTL4 peptide and a negative isotype control antibody. All binding studies were performed in 10 mM HEPES pH 7.4, 150 mM NaCl, 3 mM EDTA, and 0.05% v/v Surfactant Tween-20 (HBS-ET running buffer) at 25° C. The HCA sensor surface was derivatized via amine coupling to a monoclonal mouse anti-human Fc antibody (GE, # BR-1008-39), and to this surface was captured approximately 1000 RU of each ANGPTL8 antibody or control antibody. Peptide stock solutions were diluted in HBS-ET running buffer to 500 nM and injected over the antibody-captured surfaces for 4 minutes at a flow rate of 30 μL/minute followed by the dissociation of bound peptide in HBS-ET running buffer for 10 minutes.
(§3) Dissociative half-lives (t½) were calculated from kd as: […]

[4] = molecular target: T4, peptide from the N-terminal coiled-coil region of human ANGPTL4 (hANGPTL4 peptide, SEQ ID NO: 339) (human); assay: SPR, captured mAb, 500 nM peptide, 25C
T4 peptide: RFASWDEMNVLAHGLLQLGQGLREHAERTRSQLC
Description: as §2, §3

[5] = molecular target: T5, human ANGPTL8 peptide (hANGPTL8 peptide, SEQ ID NO: 337) (human); assay: SPR, captured mAb, 500 nM peptide, 25C
T5 construct: also called N-terminal region ANGPTL8 peptide
T5 peptide: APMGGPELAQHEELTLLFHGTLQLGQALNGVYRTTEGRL
Description: as §2, §3

[6] = molecular target: T6, negative control protein with the same mFc tag (hLDLR-mFc) (human; mouse, UniProt P01130 22-788, limits assumed); assay: BLI Octet, captured antigen, 100 nM mAb, 25C
T6 construct: also called Irrelevant control; not shown: mouse IgG2a Fc tag (same mFc tag as hANGPTL8-mFc)
T6 sequence (P01130 22-788 limits assumed): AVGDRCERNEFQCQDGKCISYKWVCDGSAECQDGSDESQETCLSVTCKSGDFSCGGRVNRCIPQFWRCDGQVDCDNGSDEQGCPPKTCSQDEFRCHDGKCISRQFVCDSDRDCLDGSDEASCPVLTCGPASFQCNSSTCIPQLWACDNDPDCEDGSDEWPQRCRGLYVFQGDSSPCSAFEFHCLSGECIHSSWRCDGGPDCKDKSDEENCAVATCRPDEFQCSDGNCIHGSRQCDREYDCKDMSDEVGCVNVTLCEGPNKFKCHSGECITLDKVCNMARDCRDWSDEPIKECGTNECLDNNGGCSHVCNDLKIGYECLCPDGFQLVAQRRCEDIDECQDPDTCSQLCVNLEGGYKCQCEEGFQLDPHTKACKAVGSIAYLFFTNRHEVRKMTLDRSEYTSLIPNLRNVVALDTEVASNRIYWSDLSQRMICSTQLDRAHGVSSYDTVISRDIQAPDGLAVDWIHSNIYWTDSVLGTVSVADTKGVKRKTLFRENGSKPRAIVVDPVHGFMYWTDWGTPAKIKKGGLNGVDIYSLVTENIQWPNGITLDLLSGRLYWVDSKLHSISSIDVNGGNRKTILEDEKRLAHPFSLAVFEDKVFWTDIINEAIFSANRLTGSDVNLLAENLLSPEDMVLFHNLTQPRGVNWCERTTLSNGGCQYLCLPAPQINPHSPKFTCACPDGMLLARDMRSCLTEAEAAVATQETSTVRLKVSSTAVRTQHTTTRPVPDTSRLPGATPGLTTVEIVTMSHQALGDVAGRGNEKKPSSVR
Description: as §1

[7] = molecular target: T2, human ANGPTL8 expressed with C-terminal …; assay: BLI Octet, captured antigen, 100 nM mAb, 25C
Description: as §1

[8] = molecular target: T7, monkey ANGPTL8 expressed with C-terminal mouse IgG2a Fc tag (MfANGPTL8-mFc; SEQ ID NO: 341) (cynomolgus monkey); assay: BLI Octet, captured antigen, 100 nM mAb, 25C
T7 construct: also called cynomolgus monkey ANGPTL8
T7 chain: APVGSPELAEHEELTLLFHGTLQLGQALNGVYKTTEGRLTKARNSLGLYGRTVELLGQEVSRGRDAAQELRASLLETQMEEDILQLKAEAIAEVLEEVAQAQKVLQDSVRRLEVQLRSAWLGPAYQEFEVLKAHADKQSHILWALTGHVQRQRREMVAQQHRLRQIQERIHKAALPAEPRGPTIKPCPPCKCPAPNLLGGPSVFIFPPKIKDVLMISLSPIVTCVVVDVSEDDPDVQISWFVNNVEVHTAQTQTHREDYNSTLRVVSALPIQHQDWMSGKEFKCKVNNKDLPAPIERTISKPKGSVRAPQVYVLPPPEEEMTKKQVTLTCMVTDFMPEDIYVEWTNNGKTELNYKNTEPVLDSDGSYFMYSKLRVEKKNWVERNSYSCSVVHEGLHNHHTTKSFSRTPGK
Description: as §1

[9] = molecular target: T8, linear peptide 1APMGGPELAQHEELT15 (SEQ ID NO: 348) (human); assay: Pepscan peptide array ELISA, 1 µg/ml antibody
T8 construct: Synthesized on a solid support (Pepscan array)
T8 peptide: APMGGPELAQHEELT

B1: H4H15321P (antibody, human IgG4, V domains shown)
VH: EVQLVESGGGLVQPGGSLRLSCAASGFTFSSYAMSWVRQAPGKGLEWVSAITGSGGRTYYADSVKGRFTISRDNAKNTLYLQMNSLRAEDTAVYYCAKNFPFDYWGQGTLVTVSS
VL: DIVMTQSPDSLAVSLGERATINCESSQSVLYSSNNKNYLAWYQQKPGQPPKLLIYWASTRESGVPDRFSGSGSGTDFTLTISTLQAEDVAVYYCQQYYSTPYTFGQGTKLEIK
notes: H4H prefix: human IgG4 Fc
B1 was tested, and the “mAb Binding Response (nm)” value [1] was 0 nm, the “binding signal, fold above background” value [2] was at least 10 fold and the “500 nM hANGPTL3 peptide Bound (RU)” value [3] was 0 RU. The binding result [3] was “no binding (tested: <9 RU at 500 nM peptide)”, the “500 nM hAngPTL4 peptide Bound (RU)” value [4] was 0 RU and the binding result [4] was “no binding (tested: <9 RU at 500 nM peptide)”. For the same binder, the “500 nM hANGPTL8 peptide Bound (RU)” value [5] was 61 RU, the koff [5] was 8.29e-05 s⁻¹ and the t½ [5] was 2.32 h. The “mAb Binding Response (nm)” value [6] was 0.01 nm, the “mAb Binding Response (nm)” value [7] was 0.36 nm and the “mAb Binding Response (nm)” value [8] was 0.51 nm.

B2: H4H15362P2 (antibody, human IgG4, V domains shown)
VH: QVQLVESGGGVVQPGRSLRLSCAASGFTFSSYGMHWVRQAPGKGLEWVAVIWYDGSNKYYADSVKGRFTISRDNSKNTLYLQMNSLRAEDTAVYYCARDWVRFLEWFPHFDYWGQGTLVTVSS
VL: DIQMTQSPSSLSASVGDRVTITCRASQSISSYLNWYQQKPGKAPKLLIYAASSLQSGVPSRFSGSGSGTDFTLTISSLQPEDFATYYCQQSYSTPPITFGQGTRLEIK
notes: H4H prefix: human IgG4 Fc
In the case of B2, the “mAb Binding Response (nm)” value [1] is reported as 0.01 nm, the “binding signal, fold above background” value [2] is reported as at least 10 fold and the “500 nM hANGPTL3 peptide Bound (RU)” value [3] is reported as 0 RU. For the same binder, the binding result [3] was “no binding (tested: <9 RU at 500 nM peptide)”, the “500 nM hAngPTL4 peptide Bound (RU)” value [4] was 0 RU and the binding result [4] was “no binding (tested: <9 RU at 500 nM peptide)”. For the same binder, the “500 nM hANGPTL8 peptide Bound (RU)” value [5] was 0 RU, the binding result [5] was “no binding (tested: <9 RU at 500 nM peptide)” and the “mAb Binding Response (nm)” value [7] was 0.39 nm. For the same binder, the “mAb Binding Response (nm)” value [8] was 0.36 nm.

B3: H4H15367P2 (antibody, human IgG4, V domains shown)
VH: QVQLVESGGGVVQPGRSVRLSCGASGFTFKYYGMHWVRQAPGKGLEWVAVIWYDGRNKFYADSVKGRFTISRDNSKNTVNLEMNNLRAEDTAIYYCARDGGTADGDYFDYWGQGTLVTVSS
VL: not shown
notes: H4H prefix: human IgG4 Fc
B3 was tested, and the “mAb Binding Response (nm)” value [1] was 0 nm, the “binding signal, fold above background” value [2] was at least 10 fold and the “500 nM hANGPTL3 peptide Bound (RU)” value [3] was 0 RU. The binding result [3] was “no binding (tested: <9 RU at 500 nM peptide)”, the “500 nM hAngPTL4 peptide Bound (RU)” value [4] was 0 RU and the binding result [4] was “no binding (tested: <9 RU at 500 nM peptide)”. For the same binder, the “500 nM hANGPTL8 peptide Bound (RU)” value [5] was 43 RU, the koff [5] was 9.82e-05 s⁻¹ and the t½ [5] was 1.97 h. The binding result [9] was “binds”, the “mAb Binding Response (nm)” value [7] was 0.32 nm and the “mAb Binding Response (nm)” value [8] was 0.33 nm.

B4: H4H15330P (antibody, human IgG4, V domains shown)
VH: QVQLVESGGGLVKPGGSLRLSCAASGFTFSDYYMSWIRQAPGKGLEWISHISGSGRTTHYADSMKGRFTISRDNAKNSLYLQMNSLRAEDTAVYYCVREGGFNWNYEGTFDIWGQGTMVTVSS
VL: DIVMTQTPLSSPVTLGQPASISCRSSQSLLHSDQNTYLSWLHQRPGQPPRLLIYKISNRFSGVPDRFSGSGAGTDFTLKISRVEAEDVGIYYCMQGTQFPLTFGGGTKVEIK
notes: H4H prefix: human IgG4 Fc
With B4 the “mAb Binding Response (nm)” value [1] was 0.01 nm, the “binding signal, fold above background” value [2] was at least 10 fold and the “500 nM hANGPTL3 peptide Bound (RU)” value [3] was -1 RU. For the same binder, the “500 nM hAngPTL4 peptide Bound (RU)” value [4] was 0 RU, the binding result [4] was “no binding (tested: <9 RU at 500 nM peptide)” and the “500 nM hANGPTL8 peptide Bound (RU)” value [5] was 0 RU. The binding result [5] was “no binding (tested: <9 RU at 500 nM peptide)”, the “mAb Binding Response (nm)” value [6] was 0.02 nm and the “mAb Binding Response (nm)” value [7] was 0.34 nm. For the same binder, the “mAb Binding Response (nm)” value [8] was 0.39 nm.

B5: H4H15334P (antibody, human IgG4, V domains shown)
VH: QVQLQESGPGLVKPSQTLSLTCTVSGGSINSGGYYWNWIRQHPGKGLEWIGYIYYSGSTYFNPSLKSRVTISIDTSKNQFSLKLSSVTAADTAVYYCAREGIYAFDYWGQGTLVTVSS
VL: DIQMTQSPSSLSASVGDRVTITCRASQGIRNDLGWYQQKPGKAPKRLIYSASSLQSGVPSRFGGSGSGTEFTLTISSLQPEDFATYYCLQHNSYPWTFGQGTKVEIK
notes: H4H prefix: human IgG4 Fc
For B5, the “mAb Binding Response (nm)” value [1] was 0.03 nm, the “500 nM hANGPTL3 peptide Bound (RU)” value [3] was 0 RU and the binding result [3] was “no binding (tested: <9 RU at 500 nM peptide)”. The “500 nM hAngPTL4 peptide Bound (RU)” value [4] was 1 RU, the binding result [4] was “no binding (tested: <9 RU at 500 nM peptide)” and the “500 nM hANGPTL8 peptide Bound (RU)” value [5] was 0 RU. The binding result [5] was “no binding (tested: <9 RU at 500 nM peptide)”, the “mAb Binding Response (nm)” value [6] was 0 nm and the “mAb Binding Response (nm)” value [7] was 0.05 nm. The “mAb Binding Response (nm)” value [8] was 0.01 nm.

B6: H4H15369P2 (antibody, human IgG4, V domains shown)
VH: EVQLVESGGGLVQPGGSLRLSCVGTGFTFSNYAMSWVRQAPGKGLEWVSGISGRSSGTFYADSVKGRFTISRDNSQNTLYLQMNSLGAEDTAVYYCAKVSRYNWDYVPFDFWGQGTLVTVSS
VL: not shown
notes: H4H prefix: human IgG4 Fc
With B6 the “mAb Binding Response (nm)” value [1] was 0.01 nm, the “500 nM hANGPTL3 peptide Bound (RU)” value [3] was 0 RU and the binding result [3] was “no binding (tested: <9 RU at 500 nM peptide)”. The “500 nM hAngPTL4 peptide Bound (RU)” value [4] was 0 RU, the binding result [4] was “no binding (tested: <9 RU at 500 nM peptide)” and the “500 nM hANGPTL8 peptide Bound (RU)” value [5] was 0 RU. For the same binder, the binding result [5] was “no binding (tested: <9 RU at 500 nM peptide)”, the “mAb Binding Response (nm)” value [6] was 0 nm and the “mAb Binding Response (nm)” value [7] was 0.14 nm. For the same binder, the “mAb Binding Response (nm)” value [8] was 0.17 nm.
